Tested on: MOP7/human ARNT (transfected) (Mus musculus)
Test: cell_activity
Details: COS-1 luciferase; enhanced by hypoxia or CoCl2

With “HRE reporter (six HRE enhancer elements)” the activity was 11.7 fold.

Reference: patent publication US20060084798
